Here are results for 1 substance from paper PMC3136132.

The target in the series is FMRP (UniProt Q06787). The series is described as follows: biotin-RNA affinity capture. As to conditions: 50 mM Tris-HCl pH 7.4, 2 mM MgCl2, 150 mM KCl, 1 mM EDTA, 1 mM DTT (Schaeffer buffer without tRNA, supplemented with 125 mM NaCl); SoftLink avidin resin …; scale: fold more RNA needed than eEF-1A mRNA for comparable binding.

Substance BC1 RNA, annealed came in with a fold more RNA needed than eEF-1A mRNA of 100.
